Here are results for 34 variants from the Human Domainome abundance scans (Beltran et al. 2025).

Sequences and labels used below:
B1: Peripheral plasma membrane protein CASK, residues 488 to 569; numbered along this chain, O14936 (parent)
chain: VRLVQFQKNTDEPMGITLKMNELNHCIVARIMHGGMIHRQGTLHVGDEIREINGISVANQTVEQLQKMLREMRGSITFKIVP

± gives the uncertainty stated by the source.

Variants of B1 are the subject of this data set. Nature of the data set: abundance fitness (aPCA) (normalised: wild type 0, dead -1); higher = more abundant; growth selection in yeast, the domain comes from the species named. The note with it: Homo sapiens.
Regarding VRLVQFQKNTDEPMGITLKMNELNHCIVARIMHGGMIHRQGTLHVGDEIREINMISVANQTVEQLQKMLREMRGSITFKIVP, the abundance fitness is -0.299 ± 0.088.

Turning to VRLVQFQKNTDEPMGITLKMLELNHCIVARIMHGGMIHRQGTLHVGDEIREINGISVANQTVEQLQKMLREMRGSITFKIVP, the abundance fitness was -0.228 ± 0.025.

VRLVQFQKNTDEPMGITLKMNELNHCIVARIRHGGMIHRQGTLHVGDEIREINGISVANQTVEQLQKMLREMRGSITFKIVP: the abundance fitness turned out to be 0.003 ± 0.028.

Regarding VRLVQFQKNTDEPMGITLKMNELNHCIVARIFHGGMIHRQGTLHVGDEIREINGISVANQTVEQLQKMLREMRGSITFKIVP, the abundance fitness was found to be 0.086 ± 0.26.

Turning to VRLVQFQKNTDEPMGITLKMNELNHCIVARIMHGGMIHRQGTLHVGDEIREINGISVANQTVEQLQKMLREMRGSITYKIVP, the abundance fitness is -0.524 ± 0.064.

VRLVQFQKNTDEPMGITLKMNELNHCIVARIMHGGMIHRQGTLHVGDEIREINGISVANQTVEQLQKMLREARGSITFKIVP: the abundance fitness was 0.022 ± 0.024.

In the case of VRLVQFQKNTDEPMGITLKMNELNHCIVARIMHGGMIHRQGTLHVGDEIREINGISVANQTVEQLQKMLREDRGSITFKIVP, the abundance fitness was -0.182 ± 0.034.

On to VRLVQFQKNTDEPMGITLKMNELNHCICARIMHGGMIHRQGTLHVGDEIREINGISVANQTVEQLQKMLREMRGSITFKIVP, for which the abundance fitness was -0.272 ± 0.036.

In the case of VRLVQFQKNTDEPMGITLKMNELNHCIVARIMHGGMIHRQGTLHVGDEIREINGISVANQTVEQLQKMLREMRGSVTFKIVP, the abundance fitness was -0.01 ± 0.024.

Consider VRLVQFQKNTDEPMGITLKMNELNHCIVARIMHGGMIHRQGTLHVGDEIREINGISVANQTVEQLQKMLREMRGSHTFKIVP, for which the abundance fitness is -0.544 ± 0.1.

With VRLVQFQKNTDEPMGITLKMNELNHCIVARIMHGGMIHRQGTLHVGDEIREINGISVANQTVEPLQKMLREMRGSITFKIVP, the abundance fitness is -0.334 ± 0.032.

With VRLVQFQKNTDEPMGITLKMNELNHCIVARIMHGGMIHRQGTLHVGDEIREINGISVANQTVEQLQKMLREMRGSITFKIVY, the abundance fitness was -0.45 ± 0.17.

Take VRLVQFQKNTDEPMGITLKMNELSHCIVARIMHGGMIHRQGTLHVGDEIREINGISVANQTVEQLQKMLREMRGSITFKIVP: the abundance fitness was -0.045 ± 0.023.

On to VRLVQFQKNTDEPMGITLKMNELNNCIVARIMHGGMIHRQGTLHVGDEIREINGISVANQTVEQLQKMLREMRGSITFKIVP, for which the abundance fitness stood at 0.027 ± 0.036.

Consider VRLVQFQKNTDEPMGITLKMNELNYCIVARIMHGGMIHRQGTLHVGDEIREINGISVANQTVEQLQKMLREMRGSITFKIVP, for which the abundance fitness was -0.102 ± 0.047.

Consider VRLVQFQKNTDEPMGITLKMNELNHCIVARIMHGGMIHRQGTLHVGDQIREINGISVANQTVEQLQKMLREMRGSITFKIVP, for which the abundance fitness is -0.069 ± 0.051.

As for VRLVQFQKNTDEPMGITLKMNELNHCIVARIMHGGMIHRQGTLHVGDPIREINGISVANQTVEQLQKMLREMRGSITFKIVP, the abundance fitness was -1.09 ± 0.24.

Consider VRLVQFQKNTDEPAGITLKMNELNHCIVARIMHGGMIHRQGTLHVGDEIREINGISVANQTVEQLQKMLREMRGSITFKIVP, for which the abundance fitness is -0.078 ± 0.036.

In the case of VRLVQFQKNTDEPMGITLKMNELNHCRVARIMHGGMIHRQGTLHVGDEIREINGISVANQTVEQLQKMLREMRGSITFKIVP, the abundance fitness is -0.227 ± 0.022.

As for VRLVQFQKNTDEDMGITLKMNELNHCIVARIMHGGMIHRQGTLHVGDEIREINGISVANQTVEQLQKMLREMRGSITFKIVP, the abundance fitness was -0.028 ± 0.085.

As for VRLVQFQKNTDEMMGITLKMNELNHCIVARIMHGGMIHRQGTLHVGDEIREINGISVANQTVEQLQKMLREMRGSITFKIVP, the abundance fitness is -0.1 ± 0.098.

As for VRLVQFQKNTDEPMGITLKMNELNHCIVARIMHGGMIHRQGTLHVGDEIREINGISVANSTVEQLQKMLREMRGSITFKIVP, the abundance fitness is -0.042 ± 0.025.

For the variant VRLVQFQKNTDEPMGITLKMNELNHCIVARIMHGGMIHRQGTLHVGDECREINGISVANQTVEQLQKMLREMRGSITFKIVP, the abundance fitness was -0.855 ± 0.17.

As for VRLVQFQKNTDEPMGITLKMNELNHCIVARIMHGGMIHRQGTLHVGDESREINGISVANQTVEQLQKMLREMRGSITFKIVP, the abundance fitness is -0.886 ± 0.12.

For VRLVQFQKNTDEPMGITLKMNELNHCIVARIMHGGMIHRQGTLHVGDEIREINGISVANQTVEQLQKMLREMRGAITFKIVP, the abundance fitness was determined as 0.04 ± 0.027.

Regarding VRLVQFQKNTDEPMGITLKMNELNHCIVARIMHGGMIHRQGTLHVGDEIREINGISVANQTVEQLQKMLREMRGYITFKIVP, the abundance fitness is -0.116 ± 0.048.

Regarding VRLVQFQKNTDEPMGITLKMNELNHCIVARIMHGGMIHRQGTLHVGDEIREINGISVANQTVEQLQKMLREMRGSITFKQVP, the abundance fitness is -0.894 ± 0.13.

For the variant VRLVQFQKNTDEPMGITLKMNELNHCIVARIMHGGMIHRQGTLHVDDEIREINGISVANQTVEQLQKMLREMRGSITFKIVP, the abundance fitness was -0.22 ± 0.04.

Regarding VRLVQFQKNTDEPMGITLKMNELNHCIVARIMIGGMIHRQGTLHVGDEIREINGISVANQTVEQLQKMLREMRGSITFKIVP, the abundance fitness was -0.006 ± 0.052.

Take VRLVQFQKNTDEPMKITLKMNELNHCIVARIMHGGMIHRQGTLHVGDEIREINGISVANQTVEQLQKMLREMRGSITFKIVP: the abundance fitness was -0.538 ± 0.063.

For VRLVQFQKNTDEPMFITLKMNELNHCIVARIMHGGMIHRQGTLHVGDEIREINGISVANQTVEQLQKMLREMRGSITFKIVP, the abundance fitness was -0.427 ± 0.041.

Regarding VRLVQFQKNTDEPMGITLKMNELNHEIVARIMHGGMIHRQGTLHVGDEIREINGISVANQTVEQLQKMLREMRGSITFKIVP, the abundance fitness is -0.909 ± 0.059.

In the case of VRLVQFQKNTDEPMGITLKMNELNHRIVARIMHGGMIHRQGTLHVGDEIREINGISVANQTVEQLQKMLREMRGSITFKIVP, the abundance fitness is -0.642 ± 0.029.

As to VRLVQFQKNTDEPMGITLKMNELNHCIVARIMHGGMIHRQGTLHVGDEIREINGISVAVQTVEQLQKMLREMRGSITFKIVP, the abundance fitness was -0.164 ± 0.026.
